B1: glmS ribozyme (parent)
chain: AUAAAAGCGCCAGAACUACAGAAAUGUAGUUGACGAGGAGGAGGUUUAUCGAAUUUUCGGCGGAUGCCUCCAAA

± gives the standard error. For part of these data: This sample holds only a part of the variants without activity. Bounds are passed on as bounds.

What all share (settings): with glucosamine-6-phosphate
Data set [1] covers variants of B1. As to the kind of experiment: kcat; higher = faster cleavage; RNA array. The essentials:
(§1)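 Glucosamine-6-phosphate in HEPES/KCl/Mg(OAc)2 buffer, at 40 μM to 10 mM, was flowed over barcoded ribozyme variants transcribed in situ by E. coli RNA polymerase on sequenced MiSeq chips. Tracking was through a hybridised Cy3 probe at 37 °C. kobs, kcat and KM came from exponential decay fits and weighted Michaelis–Menten fits of normalised per-tile medians.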

Data set [2] covers variants of B1. The data set is described as follows: self-cleavage kobs at 40 uM GlcN6P; higher = faster cleavage; RNA array. Summed up: as §1
In data set [3] the parent is B1. The data set is described as follows: self-cleavage kobs at 640 uM GlcN6P; higher = faster cleavage; RNA array. Summed up: as §1
Variants of B1 are the subject of data set [4]. The data set is described as follows: self-cleavage kobs at 160 uM GlcN6P; higher = faster cleavage; RNA array. The essentials:
as §1

In data set [5] the parent is B1. The data set is described as follows: self-cleavage kobs at 2500 uM GlcN6P; higher = faster cleavage; RNA array. Summed up: as §1
Variants of B1 are the subject of data set [6]. The data set is described as follows: KM; higher = weaker cofactor use; RNA array. The essentials: as §1
Data set [7] covers variants of B1. As to the kind of experiment: self-cleavage kobs at 10000 uM GlcN6P; higher = faster cleavage; RNA array. The essentials: as §1

From the supplement of paper PMC7125110 come the findings set out here.

What is called kcat is the number of substrate molecules converted per active site and unit of time at saturation. What is called KM is the concentration of substrate that gives half-maximal velocity.

In the case of U31C G59U, in the data set with glucosamine-6-phosphate [1], the kcat is below 1e-05 s⁻¹. Besides, the “self-cleavage kobs at 40 uM GlcN6P” value with glucosamine-6-phosphate [2] is below 1e-05 s⁻¹. Further, the “self-cleavage kobs at 640 uM GlcN6P” value in the data set with glucosamine-6-phosphate [3] is below 1e-05 s⁻¹.
With C8A G29A C50G G66A C70G, the kcat in the data set with glucosamine-6-phosphate [1] is 7.47e-05 ± 2e-05 s⁻¹. Further, the “self-cleavage kobs at 160 uM GlcN6P” value with glucosamine-6-phosphate [4] was 9e-05 ± 1.5e-05 s⁻¹. Also, in the data set with glucosamine-6-phosphate [3], the “self-cleavage kobs at 640 uM GlcN6P” value came to 4.95e-05 ± 1.7e-05 s⁻¹. The “self-cleavage kobs at 2500 uM GlcN6P” value in the data set with glucosamine-6-phosphate [5] came to 7.56e-05 ± 1.6e-05 s⁻¹.
With C10G C61A, the kcat with glucosamine-6-phosphate [1] came out at 1.32e-05 ± 9.6e-07 s⁻¹. Also, the KM with glucosamine-6-phosphate [6] was determined as 180 ± 67 µM. Further, the “self-cleavage kobs at 40 uM GlcN6P” value with glucosamine-6-phosphate [2] is below 1e-05 s⁻¹. For the same variant, the “self-cleavage kobs at 640 uM GlcN6P” value with glucosamine-6-phosphate [3] is below 1e-05 s⁻¹. Further, the “self-cleavage kobs at 10000 uM GlcN6P” value in the data set with glucosamine-6-phosphate [7] is below 1e-05 s⁻¹.
As to U30C G66C, the kcat in the data set with glucosamine-6-phosphate [1] was below 1e-05 s⁻¹. Besides, in the data set with glucosamine-6-phosphate [6], the KM was found to be 347 ± 120 µM. Also, in the data set with glucosamine-6-phosphate [3], the “self-cleavage kobs at 640 uM GlcN6P” value is below 1e-05 s⁻¹. The “self-cleavage kobs at 2500 uM GlcN6P” value with glucosamine-6-phosphate [5] was below 1e-05 s⁻¹.
With G32U A64G, the kcat in the data set with glucosamine-6-phosphate [1] turned out to be 0.000904 ± 0.0002 s⁻¹. Further, the Michaelis-Menten constant (KM) with glucosamine-6-phosphate [6] came to 3130 ± 1100 µM. Further, the “self-cleavage kobs at 160 uM GlcN6P” value with glucosamine-6-phosphate [4] was 4.19e-05 ± 1.1e-05 s⁻¹. In addition, the “self-cleavage kobs at 640 uM GlcN6P” value with glucosamine-6-phosphate [3] was 0.000178 ± 2.3e-05 s⁻¹. Besides, the “self-cleavage kobs at 2500 uM GlcN6P” value with glucosamine-6-phosphate [5] was 0.00034 ± 4.6e-05 s⁻¹. In addition, in the data set with glucosamine-6-phosphate [7], the “self-cleavage kobs at 10000 uM GlcN6P” value came to 0.000774 ± 0.00011 s⁻¹.
As for U30A A53G, the kcat with glucosamine-6-phosphate [1] was found to be 0.00645 ± 0.0027 s⁻¹. In addition, the “self-cleavage kobs at 40 uM GlcN6P” value with glucosamine-6-phosphate [2] is 0.000256 ± 5.1e-05 s⁻¹. Further, the “self-cleavage kobs at 160 uM GlcN6P” value with glucosamine-6-phosphate [4] came to 0.000553 ± 0.00023 s⁻¹. The “self-cleavage kobs at 640 uM GlcN6P” value with glucosamine-6-phosphate [3] came out at 0.00196 ± 0.00055 s⁻¹. Moreover, the “self-cleavage kobs at 2500 uM GlcN6P” value in the data set with glucosamine-6-phosphate [5] turned out to be 0.00301 ± 0.00096 s⁻¹. Besides, the “self-cleavage kobs at 10000 uM GlcN6P” value in the data set with glucosamine-6-phosphate [7] came to 0.00929 ± 0.002 s⁻¹.
With G51C C68A, the kcat with glucosamine-6-phosphate [1] was below 1e-05 s⁻¹. Further, the “self-cleavage kobs at 40 uM GlcN6P” value in the data set with glucosamine-6-phosphate [2] is below 1e-05 s⁻¹.
With A33C U47C, in the data set with glucosamine-6-phosphate [1], the kcat was 4.24e-05 ± 1.3e-05 s⁻¹. Also, in the data set with glucosamine-6-phosphate [5], the “self-cleavage kobs at 2500 uM GlcN6P” value was 5.42e-05 ± 1.3e-05 s⁻¹. Moreover, the “self-cleavage kobs at 10000 uM GlcN6P” value with glucosamine-6-phosphate [7] amounted to 3.37e-05 ± 1e-05 s⁻¹.
Regarding C11U A14G, in the data set with glucosamine-6-phosphate [1], the kcat was determined as 0.0102 ± 0.0018 s⁻¹. Also, the KM with glucosamine-6-phosphate [6] stood at 2230 ± 580 µM. In addition, in the data set with glucosamine-6-phosphate [2], the “self-cleavage kobs at 40 uM GlcN6P” value is 0.000229 ± 4e-05 s⁻¹. In the data set with glucosamine-6-phosphate [4], the “self-cleavage kobs at 160 uM GlcN6P” value came to 0.000583 ± 0.00013 s⁻¹. Besides, the “self-cleavage kobs at 640 uM GlcN6P” value with glucosamine-6-phosphate [3] was 0.00207 ± 0.0003 s⁻¹. Further, the “self-cleavage kobs at 2500 uM GlcN6P” value with glucosamine-6-phosphate [5] was 0.00674 ± 0.0012 s⁻¹. Also, the “self-cleavage kobs at 10000 uM GlcN6P” value with glucosamine-6-phosphate [7] stood at 0.00811 ± 0.001 s⁻¹.
For the variant A12G A39U, the kcat in the data set with glucosamine-6-phosphate [1] stood at 0.000523 ± 9.7e-05 s⁻¹. Besides, the KM in the data set with glucosamine-6-phosphate [6] stood at 4350 ± 1400 µM. Moreover, the “self-cleavage kobs at 640 uM GlcN6P” value in the data set with glucosamine-6-phosphate [3] came out at 6.01e-05 ± 1.2e-05 s⁻¹. Moreover, the “self-cleavage kobs at 2500 uM GlcN6P” value with glucosamine-6-phosphate [5] worked out at 0.000246 ± 4.1e-05 s⁻¹. Also, in the data set with glucosamine-6-phosphate [7], the “self-cleavage kobs at 10000 uM GlcN6P” value was found to be 0.00035 ± 4.6e-05 s⁻¹.
Turning to G63U U69G, the kcat in the data set with glucosamine-6-phosphate [1] is 2.86e-05 ± 7.3e-06 s⁻¹. Besides, in the data set with glucosamine-6-phosphate [4], the “self-cleavage kobs at 160 uM GlcN6P” value was 3.51e-05 ± 1.5e-05 s⁻¹. Besides, in the data set with glucosamine-6-phosphate [3], the “self-cleavage kobs at 640 uM GlcN6P” value came to 3.96e-05 ± 1.5e-05 s⁻¹.
As for A6U G59A C68U, the kcat with glucosamine-6-phosphate [1] stood at 1.04e-05 ± 3.6e-06 s⁻¹.
For G60A C70U, in the data set with glucosamine-6-phosphate [1], the kcat was found to be 3.47e-05 ± 4e-06 s⁻¹. Also, the “self-cleavage kobs at 40 uM GlcN6P” value with glucosamine-6-phosphate [2] was below 1e-05 s⁻¹. Besides, the “self-cleavage kobs at 2500 uM GlcN6P” value with glucosamine-6-phosphate [5] stood at 1.93e-05 ± 9.2e-06 s⁻¹. For the same variant, the “self-cleavage kobs at 10000 uM GlcN6P” value with glucosamine-6-phosphate [7] was 3.02e-05 ± 6.5e-06 s⁻¹.
Take A14C C50A: the kcat with glucosamine-6-phosphate [1] is below 1e-05 s⁻¹.
As to G29C C71G, the kcat in the data set with glucosamine-6-phosphate [1] came to 8.64e-05 ± 1.2e-05 s⁻¹. The “self-cleavage kobs at 160 uM GlcN6P” value with glucosamine-6-phosphate [4] was found to be 5.06e-05 ± 1.3e-05 s⁻¹. Also, the “self-cleavage kobs at 640 uM GlcN6P” value with glucosamine-6-phosphate [3] came out at 3.96e-05 ± 1.4e-05 s⁻¹. For the same variant, in the data set with glucosamine-6-phosphate [5], the “self-cleavage kobs at 2500 uM GlcN6P” value was 8.9e-05 ± 1.2e-05 s⁻¹. Besides, the “self-cleavage kobs at 10000 uM GlcN6P” value with glucosamine-6-phosphate [7] turned out to be 8.49e-05 ± 1e-05 s⁻¹.
For A33C A36C G43A A52U, the kcat with glucosamine-6-phosphate [1] is below 1e-05 s⁻¹.
Regarding A12C A39G, in the data set with glucosamine-6-phosphate [1], the kcat amounted to 0.0192 ± 0.0069 s⁻¹. In the data set with glucosamine-6-phosphate [6], the KM was found to be 2230 ± 1000 µM. Further, the “self-cleavage kobs at 40 uM GlcN6P” value with glucosamine-6-phosphate [2] stood at 0.000367 ± 4.7e-05 s⁻¹. Also, the “self-cleavage kobs at 160 uM GlcN6P” value with glucosamine-6-phosphate [4] came to 0.00113 ± 0.00026 s⁻¹. Further, the “self-cleavage kobs at 640 uM GlcN6P” value with glucosamine-6-phosphate [3] turned out to be 0.00513 ± 0.0012 s⁻¹. Moreover, the “self-cleavage kobs at 2500 uM GlcN6P” value with glucosamine-6-phosphate [5] came out at 0.00799 ± 0.0015 s⁻¹. Also, the “self-cleavage kobs at 10000 uM GlcN6P” value in the data set with glucosamine-6-phosphate [7] worked out at 0.0245 ± 0.0049 s⁻¹.
With G51U C68G, the kcat with glucosamine-6-phosphate [1] was found to be 4.24e-05 ± 1.1e-05 s⁻¹. Besides, the “self-cleavage kobs at 640 uM GlcN6P” value in the data set with glucosamine-6-phosphate [3] amounted to 5.2e-05 ± 9.7e-06 s⁻¹. Moreover, the “self-cleavage kobs at 2500 uM GlcN6P” value with glucosamine-6-phosphate [5] worked out at 4.27e-05 ± 1e-05 s⁻¹.
As to G51A C61A, in the data set with glucosamine-6-phosphate [1], the kcat worked out at 1.66e-05 ± 3.1e-06 s⁻¹. For the same variant, the “self-cleavage kobs at 40 uM GlcN6P” value with glucosamine-6-phosphate [2] is below 1e-05 s⁻¹.
